Data set [1] addresses T1, ETS1 296-441;p52-DSD (human;human, UniProt P14921;Q00653 296-441;226-328, |).
T1 sequence 1: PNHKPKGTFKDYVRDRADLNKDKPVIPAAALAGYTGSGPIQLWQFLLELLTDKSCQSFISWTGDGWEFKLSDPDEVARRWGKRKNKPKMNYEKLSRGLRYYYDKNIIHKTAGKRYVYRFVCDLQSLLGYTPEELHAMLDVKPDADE
T1 sequence 2: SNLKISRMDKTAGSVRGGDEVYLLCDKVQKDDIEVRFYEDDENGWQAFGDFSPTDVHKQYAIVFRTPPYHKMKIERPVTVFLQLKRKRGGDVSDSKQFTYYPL
As to the kind of experiment: ITC; 100 uM p52-DSD in cell; flanks make no contribution to affinity; ITC: 25 mM Tris-HCl pH 7.5, 200 mM NaCl, 3 mM TCEP, 8 °C. EMSA: 20 mM Tris-HCl pH 7.5, 150 mM NaCl, 4 °C, 1 h, 4-16% native PAGE. The conditions noted are these: protein: recombinant;recombinant; tags: GST removed (PreScission, pGEX-6P-1);GST removed (PreScission, pGEX-6P-1); copies: 1;2; blunt. On the technique in general: Isothermal titration calorimetry measures the heat released or taken up as one component is titrated into another.

The next data set concerns the target T2, ETS1 296-441;p52-RHD (human;human, UniProt P14921;Q00653 296-441;35-329, |).
T2 sequence 1: T1 sequence 1
T2 sequence 2: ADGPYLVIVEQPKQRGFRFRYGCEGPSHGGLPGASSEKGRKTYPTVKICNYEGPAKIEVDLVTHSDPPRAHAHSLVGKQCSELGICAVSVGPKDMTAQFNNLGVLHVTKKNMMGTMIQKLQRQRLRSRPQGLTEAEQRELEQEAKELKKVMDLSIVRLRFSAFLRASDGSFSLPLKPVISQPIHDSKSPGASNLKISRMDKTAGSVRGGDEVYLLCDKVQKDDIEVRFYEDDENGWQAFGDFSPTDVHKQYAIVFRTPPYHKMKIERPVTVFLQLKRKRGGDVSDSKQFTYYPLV
As to the kind of experiment: ITC; 100 uM p52-RHD in cell; no enhancement over p52-DSD; ITC: 25 mM Tris-HCl pH 7.5, 200 mM NaCl, 3 mM TCEP, 8 °C. EMSA: 20 mM Tris-HCl pH 7.5, 150 mM NaCl, 4 °C, 1 h, 4-16% native PAGE. The conditions noted are these: protein: recombinant;recombinant; tags: GST removed (PreScission, pGEX-6P-1);GST removed (PreScission, pGEX-6P-1); copies: 1;2; 5' overhang 1 nt at each end, 25 bp.

Data set [2] deals with T1, ETS1 296-441;p52-DSD. Description: ITC; 100 uM p52-DSD in cell; greater affinity than ETS1 alone; ITC: 25 mM Tris-HCl pH 7.5, 200 mM NaCl, 3 mM TCEP, 8 °C. EMSA: 20 mM Tris-HCl pH 7.5, 150 mM NaCl, 4 °C, 1 h, 4-16% native PAGE. The conditions noted are these: protein: recombinant;recombinant; tags: GST removed (PreScission, pGEX-6P-1);GST removed (PreScission, pGEX-6P-1); copies: 1;2; 5' overhang 1 nt at each end, 25 bp.

The next data set has as its target T3, ETS1_(331–441), P14921.
T3 chain: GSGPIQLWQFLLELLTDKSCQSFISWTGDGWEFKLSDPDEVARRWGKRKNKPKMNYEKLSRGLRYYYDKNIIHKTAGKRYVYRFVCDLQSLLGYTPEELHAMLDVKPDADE
Description: ITC.

Data set [3] has as its target T4, Flag-tagged ETS1_(331–441), P14921.
T4 chain: T3 chain
Description: FLAG pull-down, band densitometry. Conditions: chain shown with the change;; parent: est. 1.0; read off a plot.

Data set [4] deals with the molecule itself. As to the kind of experiment: cross-linking + native gel or EMSA; cysteine mutants mixed at a molar ratio of 1:2, DTT removed, disulfide cross-linking with 30 µM CuCl2 and 100 µM phenanthroline for 1 h at 25 °C; 4–16% gradient blue native PAGE; reversed with 20 mM DTT.
The target of data set [5] is T5, ETS1_(331–441) (human, UniProt P14921 331-441).
T5 chain: T3 chain
Description: ITC.

The target of data set [6] is T6, ETS1_(296–441) (human, UniProt P14921 296-441).
T6 chain: T1 sequence 1
Description: ITC.

Data set [7] deals with the molecule itself. Description: crystal structure; p52-RHD, ETS1_(331–441) and a 15 bp -146C>T TERT promoter DNA mixed 1:1:1; crystals at 18 °C in 100 mM HEPES pH 7.0, 2.0 M ammonium sulfate.
In data set [8] the target is T6, ETS1_(296–441). Description: ITC.
Data set [9] concerns the target T5, ETS1_(331–441). Description: ITC; 8 °C; 25 mM Tris-HCl pH 7.5, 200 mM NaCl, 3 mM TCEP; 20 μM ETS1 fragment in the cell titrated with 200 μM p52-RHD in the syringe; single-site model.
Data set [10] deals with T6, ETS1_(296–441). The description is as above.
Another data set has as its target T7, p52-RHD;ETS1 331-441 (human;human, UniProt Q00653;P14921 35-329;331-441, |).
T7 sequence 1: T2 sequence 2
T7 sequence 2: T3 chain
As to the kind of experiment: X-ray crystallography; ETS1 contacts the DNA; p52-DBSD disordered and p52-DSD bound to ETS1; ITC: 25 mM Tris-HCl pH 7.5, 200 mM NaCl, 3 mM TCEP, 8 °C. EMSA: 20 mM Tris-HCl pH 7.5, 150 mM NaCl, 4 °C, 1 h, 4-16% native PAGE. Conditions: protein: recombinant;recombinant; tags: GST removed (PreScission, pGEX-6P-1);GST removed (PreScission, pGEX-6P-1); chain copies: 2;1; 5' overhang 1 nt at each end, 15 bp. On the technique in general: Mobility shift assays separate free from complexed probe on a gel.

Positions count from the first letter of the chain named. In names and notes the source's numbering stands.

B1: 10 bp -146C>T TERT promoter DNA (dsDNA)
DNA 1: CCCTTCCGGG
DNA 2: CCCGGAAGGG
On to B1, for which, in the data set with ETS1 296-441;p52-DSD [1], the binding result is reported as “binds”.

B2: 25 bp -146C>T TERT promoter DNA (dsDNA)
DNA 1: GTCCCGACCCCTTCCGGGTCCCCGGC
DNA 2: CGCCGGGGACCCGGAAGGGGTCGGGA
In the case of B2, the binding result with ETS1 296-441;p52-RHD and with ETS1 296-441;p52-DSD [2] was “binds” throughout.

B3: p52-RHD (residues 35–329), Q00653 R241A; M297A; K298A (protein)
chain: T2 sequence 2 with R207A, M263A, K264A
Consider B3, for which the dissociation constant Kd with ETS1_(331–441), P14921 (chain shown with the change) turned out to be 33.2 µM. Also, the Ka in the data set with ETS1_(331–441), P14921 (chain shown with the change;, parent: 1.48E5 ± 1.07E4) was determined as 30100 M⁻¹. Further, the ratio to parent in data set [3] was found to be 0.26.

B4: p52-RHD (residues 35–329), Q00653 K298A (protein)
chain: T2 sequence 2 with K264A
On to B4, for which, in [3], the ratio to parent came to 0.69.

B5: p52-RHD (R241C, C57S, and C83S) (domain or fragment, human, UniProt Q00653 35-329, looked up)
chain: T2 sequence 2 with C23S, C49S, R207C
modifications: disulfide from Cys241 to Cys343 of ETS1_(331–441) (E343C and C350S) after cross-linking with CuCl2 and phenanthroline
Take B5: the binding result in data set [4] is on record as “binds”.

B6: p52-RHD (residues 35–329), Q00653 M297A (protein)
chain: T2 sequence 2 with M263A
Consider B6, for which the ratio to parent in [3] is 0.72.

B7: p52-RHD (residues 35–329), Q00653 R241A (protein)
chain: T2 sequence 2 with R207A
Regarding B7, the ratio to parent in data set [3] was 0.51.

B8: p52-RHD (residues 35–329) (domain or fragment, human, UniProt Q00653 35-329, looked up)
chain: T2 sequence 2
notes: In the crystal only residues 226-328 (p52-DSD) are ordered; two p52-DSD form a homodimer through a crystallographic 2-fold axis; also called WT p52
Turning to B8, the Ka with ETS1_(331–441) [5] is 148000 M⁻¹; with ETS1_(296–441) [6] it was 52400 M⁻¹. The binding result in data set [7] was “binds”. Besides, the results for the Kd with ETS1_(296–441) [8] and in the data set with ETS1_(331–441) [9] were 19.1 µM and 6.76 µM, respectively. The molecule further returned a fold reduction of binding against ETS1 (331–441) with ETS1_(296–441) [10] of 3 fold.

B9: p52-RHD RMK>A (domain or fragment)
chain: T2 sequence 2 with R207A, M263A, K264A
Consider B9, for which the fold reduction of binding against WT p52 in the data set with ETS1_(331–441) [9] was 5 fold.

B10: 15 bp -146C>T TERT promoter DNA (dsDNA)
DNA 1: GCCCTTCCGGGTCCCC
DNA 2: CGGGGACCCGGAAGGG
In the case of B10, the binding result with p52-RHD;ETS1 331-441 is given as “binds”.

The term Kd denotes the constant that tells how readily two partners part at equilibrium. A high value points to a looser complex.

The values are drawn from PMC6085347, “Structural basis for reactivating the mutant TERT promoter by cooperative binding of p52 and ETS1” (Nature Communications, 2018).
